From US20230257470A1 (published 2023)
Substitutions are numbered along the chain they refer to.

T1: human FcγRIIa(H) (human, UniProt P12318 36-217)
T1 construct: also called FcgRIIaH; FcγRIIa type H
T1 sequence: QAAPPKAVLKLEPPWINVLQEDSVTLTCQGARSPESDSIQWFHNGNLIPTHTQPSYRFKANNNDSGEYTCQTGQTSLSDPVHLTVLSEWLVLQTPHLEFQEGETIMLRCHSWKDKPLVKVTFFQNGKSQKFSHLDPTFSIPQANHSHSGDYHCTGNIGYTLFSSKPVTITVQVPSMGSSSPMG

T2: human FcγRIIb (human, UniProt P31994 43-217, limits assumed)
T2 construct: also called FcgRIIb; FcγIIB
T2 sequence: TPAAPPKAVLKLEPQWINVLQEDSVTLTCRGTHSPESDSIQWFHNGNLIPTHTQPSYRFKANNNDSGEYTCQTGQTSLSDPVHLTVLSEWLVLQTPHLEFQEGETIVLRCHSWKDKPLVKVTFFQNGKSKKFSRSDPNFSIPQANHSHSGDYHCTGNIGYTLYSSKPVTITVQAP

T3: human FcγRIIa(R) (human, UniProt P12318 36-217)
T3 construct: also called FcgRIIaR; FcγRIIa type R
T3 chain: T1 sequence with H133R

B1: GpH7-B3/GpL16-k0 variant D270P (antibody, human IgG1)
heavy: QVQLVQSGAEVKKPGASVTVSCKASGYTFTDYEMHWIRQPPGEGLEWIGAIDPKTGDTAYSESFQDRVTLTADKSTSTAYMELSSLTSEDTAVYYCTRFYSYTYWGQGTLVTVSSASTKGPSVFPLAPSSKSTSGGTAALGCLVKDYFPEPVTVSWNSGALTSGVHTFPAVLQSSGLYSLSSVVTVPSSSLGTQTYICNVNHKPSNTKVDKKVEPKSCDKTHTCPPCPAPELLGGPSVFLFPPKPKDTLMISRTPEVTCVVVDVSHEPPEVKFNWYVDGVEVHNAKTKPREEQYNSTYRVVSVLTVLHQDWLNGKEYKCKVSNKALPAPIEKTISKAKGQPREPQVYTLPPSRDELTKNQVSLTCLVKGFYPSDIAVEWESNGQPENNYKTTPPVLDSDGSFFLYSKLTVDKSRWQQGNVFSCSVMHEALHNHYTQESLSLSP
light: DIVMTQSPLSLPVTPGEPASISCQASESLVHSNRNTYLHWYLQKPGQSPQLLIYKVSNRFSGVPDRFSGSGSGTDFTLKISRVEAEDVGVYYCSQNTHVPPTFGQGTKVEIE
notes: also called B3 variant; copies: 2 + 2
B2: GpH7-B3/GpL16-k0 variant D270A (antibody, human IgG1)
heavy: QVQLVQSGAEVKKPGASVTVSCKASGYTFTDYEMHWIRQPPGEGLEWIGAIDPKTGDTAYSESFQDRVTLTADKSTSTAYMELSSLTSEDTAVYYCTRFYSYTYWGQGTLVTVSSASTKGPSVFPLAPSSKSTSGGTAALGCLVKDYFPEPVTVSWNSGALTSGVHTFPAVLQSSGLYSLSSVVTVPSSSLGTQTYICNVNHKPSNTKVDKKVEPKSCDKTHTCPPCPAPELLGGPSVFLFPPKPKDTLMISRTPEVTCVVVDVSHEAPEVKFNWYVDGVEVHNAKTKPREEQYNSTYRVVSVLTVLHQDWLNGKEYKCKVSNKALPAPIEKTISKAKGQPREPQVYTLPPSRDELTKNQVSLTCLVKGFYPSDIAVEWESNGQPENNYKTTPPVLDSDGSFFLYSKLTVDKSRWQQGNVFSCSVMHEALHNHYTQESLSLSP
light: B1 light
notes: as for B1
B3: GpH7-B3/GpL16-k0 variant D270F (antibody, human IgG1)
heavy: not shown
light: B1 light
notes: as for B1
B4: GpH7-B3/GpL16-k0 variant D270G (antibody, human IgG1)
heavy: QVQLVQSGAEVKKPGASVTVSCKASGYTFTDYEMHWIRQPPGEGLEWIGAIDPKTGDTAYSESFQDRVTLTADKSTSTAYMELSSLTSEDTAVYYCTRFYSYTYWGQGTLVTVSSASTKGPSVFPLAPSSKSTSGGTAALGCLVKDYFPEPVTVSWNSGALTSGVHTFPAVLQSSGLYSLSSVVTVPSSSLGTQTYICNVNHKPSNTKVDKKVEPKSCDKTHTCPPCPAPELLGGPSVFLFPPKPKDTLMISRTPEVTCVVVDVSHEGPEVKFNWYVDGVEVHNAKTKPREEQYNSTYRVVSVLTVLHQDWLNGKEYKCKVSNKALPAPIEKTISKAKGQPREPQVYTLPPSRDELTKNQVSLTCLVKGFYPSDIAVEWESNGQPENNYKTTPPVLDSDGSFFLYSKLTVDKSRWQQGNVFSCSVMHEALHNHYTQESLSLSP
light: B1 light
notes: as for B1
B5: GpH7-B3/GpL16-k0 variant D270H (antibody, human IgG1)
heavy: not shown
light: B1 light
notes: as for B1
B6: GpH7-B3/GpL16-k0 variant D270I (antibody, human IgG1)
heavy: not shown
light: B1 light
notes: as for B1
B7: GpH7-B3/GpL16-k0 variant D270K (antibody, human IgG1)
heavy: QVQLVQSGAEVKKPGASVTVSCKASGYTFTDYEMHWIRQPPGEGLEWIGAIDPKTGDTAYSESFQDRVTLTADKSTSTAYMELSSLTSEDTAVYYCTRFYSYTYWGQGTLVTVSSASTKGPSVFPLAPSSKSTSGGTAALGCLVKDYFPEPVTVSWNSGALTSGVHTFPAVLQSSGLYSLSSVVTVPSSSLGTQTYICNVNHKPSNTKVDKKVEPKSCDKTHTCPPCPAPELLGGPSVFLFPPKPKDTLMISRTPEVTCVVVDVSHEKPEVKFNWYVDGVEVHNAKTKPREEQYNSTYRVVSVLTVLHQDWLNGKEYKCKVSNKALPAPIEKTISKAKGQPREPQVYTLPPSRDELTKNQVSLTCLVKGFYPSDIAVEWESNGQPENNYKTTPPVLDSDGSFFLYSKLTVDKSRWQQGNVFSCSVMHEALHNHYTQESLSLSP
light: B1 light
notes: as for B1
B8: GpH7-B3/GpL16-k0 variant D270L (antibody, human IgG1)
heavy: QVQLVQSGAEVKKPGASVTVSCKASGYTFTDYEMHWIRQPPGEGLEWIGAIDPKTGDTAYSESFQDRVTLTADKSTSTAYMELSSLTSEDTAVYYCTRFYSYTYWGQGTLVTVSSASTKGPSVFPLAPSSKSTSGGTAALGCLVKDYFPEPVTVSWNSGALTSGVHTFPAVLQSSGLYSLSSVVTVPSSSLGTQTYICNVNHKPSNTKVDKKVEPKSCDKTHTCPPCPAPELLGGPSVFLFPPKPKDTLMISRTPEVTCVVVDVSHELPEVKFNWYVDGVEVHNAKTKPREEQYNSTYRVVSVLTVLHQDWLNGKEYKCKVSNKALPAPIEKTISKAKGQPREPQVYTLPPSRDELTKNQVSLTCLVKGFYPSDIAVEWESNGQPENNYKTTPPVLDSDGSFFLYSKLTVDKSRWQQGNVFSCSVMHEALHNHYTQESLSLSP
light: B1 light
notes: as for B1
B9: GpH7-B3/GpL16-k0 variant D270M (antibody, human IgG1)
heavy: not shown
light: B1 light
notes: as for B1
B10: GpH7-B3/GpL16-k0 variant D270N (antibody, human IgG1)
heavy: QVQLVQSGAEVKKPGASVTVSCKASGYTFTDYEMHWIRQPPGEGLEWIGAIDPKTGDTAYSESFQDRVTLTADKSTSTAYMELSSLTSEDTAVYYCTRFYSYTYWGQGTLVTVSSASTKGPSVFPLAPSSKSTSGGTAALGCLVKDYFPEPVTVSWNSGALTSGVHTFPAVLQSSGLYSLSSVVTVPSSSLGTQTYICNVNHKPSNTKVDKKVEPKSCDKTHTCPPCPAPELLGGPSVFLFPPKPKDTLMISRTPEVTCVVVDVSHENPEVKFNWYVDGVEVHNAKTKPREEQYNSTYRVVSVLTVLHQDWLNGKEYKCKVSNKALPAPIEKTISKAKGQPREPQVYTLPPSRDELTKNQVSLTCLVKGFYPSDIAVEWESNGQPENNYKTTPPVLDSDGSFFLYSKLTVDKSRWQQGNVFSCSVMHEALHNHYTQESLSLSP
light: B1 light
notes: as for B1
B11: GpH7-B3/GpL16-k0 variant D270Q (antibody, human IgG1)
heavy: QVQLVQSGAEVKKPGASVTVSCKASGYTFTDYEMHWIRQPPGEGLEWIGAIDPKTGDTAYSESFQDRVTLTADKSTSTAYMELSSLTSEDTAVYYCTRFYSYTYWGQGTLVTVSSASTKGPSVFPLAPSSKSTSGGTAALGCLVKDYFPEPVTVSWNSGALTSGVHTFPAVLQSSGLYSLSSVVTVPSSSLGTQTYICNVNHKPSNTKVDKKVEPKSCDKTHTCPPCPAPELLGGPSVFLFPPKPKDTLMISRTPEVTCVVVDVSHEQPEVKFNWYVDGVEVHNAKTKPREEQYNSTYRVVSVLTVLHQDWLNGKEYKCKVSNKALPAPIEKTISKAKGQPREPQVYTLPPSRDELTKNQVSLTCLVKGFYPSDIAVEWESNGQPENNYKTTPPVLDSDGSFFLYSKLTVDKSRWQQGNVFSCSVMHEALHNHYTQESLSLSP
light: B1 light
notes: as for B1
B12: GpH7-B3/GpL16-k0 variant D270R (antibody, human IgG1)
heavy: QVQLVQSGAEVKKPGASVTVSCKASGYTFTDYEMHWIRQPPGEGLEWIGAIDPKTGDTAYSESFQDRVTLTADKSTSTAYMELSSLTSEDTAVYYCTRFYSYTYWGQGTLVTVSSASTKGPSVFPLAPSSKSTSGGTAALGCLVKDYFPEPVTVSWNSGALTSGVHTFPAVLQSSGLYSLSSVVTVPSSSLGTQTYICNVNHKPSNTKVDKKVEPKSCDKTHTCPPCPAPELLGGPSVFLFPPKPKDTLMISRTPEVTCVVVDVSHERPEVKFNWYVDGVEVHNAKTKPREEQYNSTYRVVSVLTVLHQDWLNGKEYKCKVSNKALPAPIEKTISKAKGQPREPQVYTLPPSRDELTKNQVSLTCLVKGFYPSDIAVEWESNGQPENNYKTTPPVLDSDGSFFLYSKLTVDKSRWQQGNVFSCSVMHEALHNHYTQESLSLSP
light: B1 light
notes: as for B1
B13: GpH7-B3/GpL16-k0 variant D270S (antibody, human IgG1)
heavy: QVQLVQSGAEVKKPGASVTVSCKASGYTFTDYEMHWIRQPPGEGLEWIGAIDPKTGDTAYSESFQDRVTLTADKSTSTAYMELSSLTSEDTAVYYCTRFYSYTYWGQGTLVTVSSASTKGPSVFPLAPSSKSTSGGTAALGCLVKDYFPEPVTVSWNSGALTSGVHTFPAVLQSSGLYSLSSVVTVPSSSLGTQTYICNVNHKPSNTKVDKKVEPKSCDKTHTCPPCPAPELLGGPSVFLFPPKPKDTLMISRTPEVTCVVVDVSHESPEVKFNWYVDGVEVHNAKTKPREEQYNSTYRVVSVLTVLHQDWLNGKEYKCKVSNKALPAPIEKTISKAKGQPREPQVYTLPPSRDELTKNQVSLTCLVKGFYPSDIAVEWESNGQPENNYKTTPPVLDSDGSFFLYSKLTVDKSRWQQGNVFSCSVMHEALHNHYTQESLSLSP
light: B1 light
notes: as for B1
B14: GpH7-B3/GpL16-k0 variant D270T (antibody, human IgG1)
heavy: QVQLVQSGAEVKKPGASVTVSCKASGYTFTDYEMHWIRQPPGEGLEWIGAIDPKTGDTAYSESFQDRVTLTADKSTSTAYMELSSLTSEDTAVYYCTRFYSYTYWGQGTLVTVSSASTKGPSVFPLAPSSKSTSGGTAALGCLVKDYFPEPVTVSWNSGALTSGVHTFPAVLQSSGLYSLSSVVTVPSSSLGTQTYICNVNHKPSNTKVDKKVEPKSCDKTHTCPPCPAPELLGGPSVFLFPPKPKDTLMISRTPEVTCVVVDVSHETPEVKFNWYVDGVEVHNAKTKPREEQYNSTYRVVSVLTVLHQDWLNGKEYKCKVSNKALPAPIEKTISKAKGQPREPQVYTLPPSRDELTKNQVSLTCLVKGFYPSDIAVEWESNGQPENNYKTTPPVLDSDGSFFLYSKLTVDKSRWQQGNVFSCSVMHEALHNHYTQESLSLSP
light: B1 light
notes: as for B1

Columns and labels:
Experiment in all cases: SPR (Biacore), antibody captured, FcγR as analyte; amount bound / that of GpH7-B3/GpL16-k0 x 100;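 further: FcγR binding response divided by the captured antibody amount before comparison, measured at 25 °C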
human FcγRIIa(H) = molecular target: T1, human FcγRIIa(H)
Procedure: (§1) Interaction between each modified antibody and Fcγ receptor prepared in the manner described above was analyzed using the BIACORE™ T100 surface plasmon resonance system (GE Healthcare), BIACORE™ T200 surface plasmon resonance system (GE Healthcare), BIACORE™ A100 surface plasmon resonance system or BIACORE™ 4000 surface plasmon resonance system. HBS-EP+(GE Healthcare) was used for the running buffer, and measurements were carried out at 25° C. The chips used were chips in which antigen peptides, Protein A (Thermo Scientific), Protein A/G (Thermo Scientific) or Protein L (ACTIGEN® protein (Alltech or BioVision) were immobilized on the Series S Sensor Chip CM5 (GE Healthcare) or Series S Sensor Chip CM4 (GE Healthcare) by amine coupling, or chips in which preliminarily biotinylated antigen peptides were allowed to interact and then immobilized on the Series S Sensor Chip SA (certified) (GE Healthcare). The target antibodies were captured on these sensor chips, Fcγ receptor diluted with the running buffer was allowed to interact, followed by measurement of the amount of bound antibody. The amounts bound were compared between antibodies. However, since the amount of Fcγ receptor bound depends on the amount of captured antibody, the values used for comparison were first corrected by dividing the amount of Fcγ receptor bound by the captured amount of each antibody. Through reaction with 10 mM glycine-HCl at pH 1.5, the sensor chips were regenerated by washing off antibody captured on the sensor chips and used repeatedly.
(§2) Binding strength was evaluated according to the following method based on the results of analyzing the interaction with each FcγR. […] That value was then further multiplied by 100, and the resulting value was used as an indicator of relative binding activity to each FcγR.

human FcγRIIIa(F) = molecular target: T4, human FcγRIIIa(F) (human, UniProt P08637 17-208, limits assumed)
T4 construct: also called FcgRIIIaF; FcγRIIIa allotype F158
T4 sequence (P08637 other isoform, or with tags, fused parts or gaps limits assumed): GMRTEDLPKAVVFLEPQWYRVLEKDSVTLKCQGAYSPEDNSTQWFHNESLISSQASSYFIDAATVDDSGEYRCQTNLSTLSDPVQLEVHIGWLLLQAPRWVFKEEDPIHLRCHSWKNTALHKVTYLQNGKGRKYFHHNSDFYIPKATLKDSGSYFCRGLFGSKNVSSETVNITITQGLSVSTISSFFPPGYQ
Procedure: as §1, §2

human FcγRIIb = molecular target: T2, human FcγRIIb
Procedure: as §1, §2

human FcγRIa = molecular target: T5, human FcγRIa (human, UniProt P12314 16-292, limits assumed)
T5 construct: also called FcgRIa; CD64
T5 sequence (P12314 16-292 limits assumed): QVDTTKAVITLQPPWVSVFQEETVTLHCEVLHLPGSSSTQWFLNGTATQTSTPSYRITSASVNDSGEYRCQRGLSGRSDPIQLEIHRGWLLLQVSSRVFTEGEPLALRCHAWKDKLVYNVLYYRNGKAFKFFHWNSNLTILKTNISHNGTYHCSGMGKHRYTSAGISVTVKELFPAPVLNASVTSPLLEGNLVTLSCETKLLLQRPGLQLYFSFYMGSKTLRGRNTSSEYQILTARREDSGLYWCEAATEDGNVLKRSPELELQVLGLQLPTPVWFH
Procedure: as §1, §2

human FcγRIIa(R) = molecular target: T3, human FcγRIIa(R)
Procedure: as §1, §2

Row | Binder | relative binding activity (human FcγRIIa(H)) | relative binding activity (human FcγRIIIa(F)) | relative binding activity (human FcγRIIb) | relative binding activity (human FcγRIa) | relative binding activity (human FcγRIIa(R))
1 | B1 | 0 GpH7-B3/GpL16-k0 = 100 | -1 GpH7-B3/GpL16-k0 = 100 | 1 GpH7-B3/GpL16-k0 = 100 | 64 GpH7-B3/GpL16-k0 = 100 | -3 GpH7-B3/GpL16-k0 = 100
2 | B2 | 66 GpH7-B3/GpL16-k0 = 100 | 23 GpH7-B3/GpL16-k0 = 100 | 5 GpH7-B3/GpL16-k0 = 100 | 87 GpH7-B3/GpL16-k0 = 100 | 3 GpH7-B3/GpL16-k0 = 100
3 | B3 | 62 GpH7-B3/GpL16-k0 = 100 | 12 GpH7-B3/GpL16-k0 = 100 | 5 GpH7-B3/GpL16-k0 = 100 | 88 GpH7-B3/GpL16-k0 = 100 | 5 GpH7-B3/GpL16-k0 = 100
4 | B4 | 29 GpH7-B3/GpL16-k0 = 100 | 6 GpH7-B3/GpL16-k0 = 100 | 3 GpH7-B3/GpL16-k0 = 100 | 82 GpH7-B3/GpL16-k0 = 100 | 3 GpH7-B3/GpL16-k0 = 100
5 | B5 | 53 GpH7-B3/GpL16-k0 = 100 | 11 GpH7-B3/GpL16-k0 = 100 | -2 GpH7-B3/GpL16-k0 = 100 | 70 GpH7-B3/GpL16-k0 = 100 | 0 GpH7-B3/GpL16-k0 = 100
6 | B6 | 43 GpH7-B3/GpL16-k0 = 100 | 23 GpH7-B3/GpL16-k0 = 100 | 1 GpH7-B3/GpL16-k0 = 100 | 88 GpH7-B3/GpL16-k0 = 100 | 3 GpH7-B3/GpL16-k0 = 100
7 | B7 | 16 GpH7-B3/GpL16-k0 = 100 | 5 GpH7-B3/GpL16-k0 = 100 | -5 GpH7-B3/GpL16-k0 = 100 | 45 GpH7-B3/GpL16-k0 = 100 | -4 GpH7-B3/GpL16-k0 = 100
8 | B8 | 61 GpH7-B3/GpL16-k0 = 100 | 33 GpH7-B3/GpL16-k0 = 100 | 3 GpH7-B3/GpL16-k0 = 100 | 90 GpH7-B3/GpL16-k0 = 100 | 6 GpH7-B3/GpL16-k0 = 100
9 | B9 | 57 GpH7-B3/GpL16-k0 = 100 | 29 GpH7-B3/GpL16-k0 = 100 | 6 GpH7-B3/GpL16-k0 = 100 | 90 GpH7-B3/GpL16-k0 = 100 | 7 GpH7-B3/GpL16-k0 = 100
10 | B10 | 34 GpH7-B3/GpL16-k0 = 100 | 13 GpH7-B3/GpL16-k0 = 100 | -2 GpH7-B3/GpL16-k0 = 100 | 68 GpH7-B3/GpL16-k0 = 100 | -1 GpH7-B3/GpL16-k0 = 100
11 | B11 | 78 GpH7-B3/GpL16-k0 = 100 | 49 GpH7-B3/GpL16-k0 = 100 | 0 GpH7-B3/GpL16-k0 = 100 | 82 GpH7-B3/GpL16-k0 = 100 | 2 GpH7-B3/GpL16-k0 = 100
12 | B12 | 11 GpH7-B3/GpL16-k0 = 100 | 2 GpH7-B3/GpL16-k0 = 100 | -5 GpH7-B3/GpL16-k0 = 100 | 45 GpH7-B3/GpL16-k0 = 100 | -5 GpH7-B3/GpL16-k0 = 100
13 | B13 | 49 GpH7-B3/GpL16-k0 = 100 | 17 GpH7-B3/GpL16-k0 = 100 | -1 GpH7-B3/GpL16-k0 = 100 | 73 GpH7-B3/GpL16-k0 = 100 | 0 GpH7-B3/GpL16-k0 = 100
14 | B14 | 38 GpH7-B3/GpL16-k0 = 100 |  | 2 GpH7-B3/GpL16-k0 = 100 | 81 GpH7-B3/GpL16-k0 = 100 | 1 GpH7-B3/GpL16-k0 = 100
